Measurements taken from PMC6639331, “Reconstitution of recombinant human CCR4-NOT reveals molecular insights into regulated deadenylation”.

What was measured:
[1] = target: T1, CAF40 module (NOT1:CAF40) (Homo sapiens, UniProt A5YKK6;Q92600 1351-1588;19-285); test: EMSA competition; 100 uM NOT1:CAF40 + 200 uM MBP-Bam CBM L17E;M24E; almost no effect on RNA binding; EMSA: 20 mM Tris/HCl pH 7.5, 10 mM NaCl, 2 mM MgCl2, 0.1% BSA, 0.1% Orange G, 3% Ficoll 400; 100 nM RNA; 10% native PAGE in TBE pH 8.3; temperature not stated; conditions: protein: recombinant; tags: MBP (NOT1) and His6 (CAF40) removed; copies: 1;1; label: 5' 6-FAM
T1 sequence (A5YKK6 1351-1588, chain 1 of 2): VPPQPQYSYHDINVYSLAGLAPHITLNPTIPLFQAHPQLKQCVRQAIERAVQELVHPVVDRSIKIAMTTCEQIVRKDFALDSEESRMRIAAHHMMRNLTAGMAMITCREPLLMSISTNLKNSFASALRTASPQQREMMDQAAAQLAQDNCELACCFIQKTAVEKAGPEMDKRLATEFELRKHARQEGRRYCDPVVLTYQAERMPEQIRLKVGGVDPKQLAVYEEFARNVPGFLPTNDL
T1 sequence (Q92600 19-285, chain 2 of 2): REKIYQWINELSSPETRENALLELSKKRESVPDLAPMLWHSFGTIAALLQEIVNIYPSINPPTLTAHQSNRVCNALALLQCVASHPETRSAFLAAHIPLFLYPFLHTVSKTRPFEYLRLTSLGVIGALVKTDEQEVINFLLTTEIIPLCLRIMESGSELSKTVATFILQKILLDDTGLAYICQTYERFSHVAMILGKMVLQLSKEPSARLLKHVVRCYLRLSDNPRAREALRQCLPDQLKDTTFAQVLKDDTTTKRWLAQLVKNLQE
NOT10:NOT11 = NOT10:NOT11 (Homo sapiens, UniProt Q9H9A5;Q9UKZ1 25-707;257-498); test: EMSA; 1 uM protein, 100 nM RNA; EMSA: 20 mM Tris/HCl pH 7.5, 10 mM NaCl, 2 mM MgCl2, 0.1% BSA, 0.1% Orange G, 3% Ficoll 400; 100 nM RNA; 10% native PAGE in TBE pH 8.3; temperature not stated; conditions: protein: recombinant; tags: MBP (NOT10) and C-His6 (NOT11) removed; copies: 1;1; label: 5' 6-FAM
Chain of NOT10:NOT11 (Q9H9A5 25-707, chain 1 of 2, other chains not shown): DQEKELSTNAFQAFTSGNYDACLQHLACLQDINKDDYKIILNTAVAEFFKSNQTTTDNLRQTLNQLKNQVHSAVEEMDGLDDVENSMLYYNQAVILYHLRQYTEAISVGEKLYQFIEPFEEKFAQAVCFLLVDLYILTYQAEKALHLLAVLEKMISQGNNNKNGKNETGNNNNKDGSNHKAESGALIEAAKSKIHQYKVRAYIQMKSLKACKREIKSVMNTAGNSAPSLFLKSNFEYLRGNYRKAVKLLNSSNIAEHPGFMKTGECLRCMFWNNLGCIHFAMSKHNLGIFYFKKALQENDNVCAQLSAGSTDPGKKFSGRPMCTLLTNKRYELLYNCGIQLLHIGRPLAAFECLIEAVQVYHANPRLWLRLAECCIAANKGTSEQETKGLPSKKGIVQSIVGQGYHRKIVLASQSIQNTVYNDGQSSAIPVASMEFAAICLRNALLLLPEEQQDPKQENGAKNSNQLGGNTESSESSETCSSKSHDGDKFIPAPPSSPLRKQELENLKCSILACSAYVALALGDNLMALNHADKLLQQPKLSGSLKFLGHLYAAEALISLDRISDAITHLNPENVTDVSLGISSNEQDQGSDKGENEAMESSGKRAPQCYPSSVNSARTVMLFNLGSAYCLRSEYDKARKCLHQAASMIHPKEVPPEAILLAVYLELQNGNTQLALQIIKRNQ

[2] = target: T1, CAF40 module (NOT1:CAF40); test: EMSA; 25 uM protein, 100 nM RNA; EMSA: 20 mM Tris/HCl pH 7.5, 10 mM NaCl, 2 mM MgCl2, 0.1% BSA, 0.1% Orange G, 3% Ficoll 400; 100 nM RNA; 10% native PAGE in TBE pH 8.3; temperature not stated; conditions: protein: recombinant; tags: MBP (NOT1) and His6 (CAF40) removed; copies: 1;1; label: 5' 6-FAM

UCUAAAUAAAAAAAAAAAAAAAAAAAA (ssRNA) [7-mer-A20]: binds [1]; binds (NOT10:NOT11).

CACAUCCAACUUCUCUAAAUAAAAAAAAAAAAAAAAAAAA (ssRNA) [13+7-mer-A20]: binds [2]; binds (NOT10:NOT11).
